In article PMC4082292, “Analysis of Y-P30/Dermcidin expression and properties of the Y-P30 peptide” (BMC Research Notes, 2014):

Assays:
[1] = Oligomerization of synthetic Y-P30 and resistance to denaturing agents (SDS-PAGE/immunoblot); type: physicochemical; details: immunoblot
Protocol: (§1) Y-P30 (aa 21–49) was synthesized as described previously [1]. For measuring stability of the peptide in vitro, Y-P30 was diluted in PBS (2 μg/μl) and incubated at room temperature over 24, 48 and 72 hours as well as 7 and 14 days. Additionally, the effect of different denaturing agents (urea, 8 M; dithiothreitol (DTT), 50 mM and 100 mM; iodoacetamide, 50 mM) was studied with incubation times of 2 and 12 hours. Thereafter, 4x sample loading dye (containing 5% beta-mercaptoethanol and 8% SDS) was added to 1x final concentration, all samples were boiled for 5 min at 95°C and subjected to SDS-PAGE with subsequent immunoblotting using a rabbit anti-Y-P30 antibody described previously [1, 2].

[2] = chemical stability; Y-P30 (aa 21-49) 2 μg/μl in PBS, room temperature, Eppendorf tube on bench shelf with regular light exposure; 24, 48, 72 h, 7 and 14 days; SDS-PAGE, immunoblot with rabbit anti-Y-P30; 13,5 μg per lane
Protocol: as §1

Y-P30: synthetic survival promoting peptide, aa 21–49 of the human Y-P30/dermcidin precursor (DPEAASAPGSGNPCHEASAAQKENAGEDP; Survival-promoting peptide; UniProt P81605 21-49, looked up, fragment)
apparent size of SDS-resistant multimer of the synthetic peptide ([1]; SDS-PAGE after boiling 5 min at 95°C in loading dye (5% beta-mercaptoethanol, 8% SDS at 4x), 10 μg per lane): 10–15 kDa
resistance of the 10-15 kDa oligomer species to denaturing agents ([1]; urea 8 M, DTT 50 mM and 100 mM, iodoacetamide 50 mM, incubation 2 h and 12 h (overnight), SDS-PAGE): resistant to urea, DTT and iodoacetamide
time for which the 15 kDA oligomer is stable [2]: at least 14 days
